Data on 125 sequences can be found in the supplement of paper PMC9112550, “Optimization of the antimicrobial peptide Bac7 by deep mutational scanning” (BMC Biology, 2022).

In this series the test system is Escherichia coli TOP10. As to the kind of experiment: shrunken log2 fold change of peptide-encoding DNA abundance (4.5 h post-induction vs induction); higher = less antimicrobial activity (less host growth inhibition). Particulars: time post-induction: 4.5 h; library: site-saturation at positions 5, 18, 19, 20.
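Further: peptides expressed intracellularly from a pBAD plasmid library in pooled LB shake-flask culture, induced with 0.3% L-arabinose, DNA abundance read by NGS, three biological replicates, DESeq2 with apeglm shrinkage.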

RRIRYRPPRLPRPRPRPGDRPRP: the “shrunken log2 fold change” value was determined as 0.196.

For RRIRTRPPRLPRPRPRPTKDPRP, the “shrunken log2 fold change” value is -0.244.

For RRIRQRPPRLPRPRPRPHFAPRP, the “shrunken log2 fold change” value is 0.0503. As for RRIRQRPPRLPRPRPRPNACPRP, the figure is -0.000684; as for RRIRVRPPRLPRPRPRPDPQPRP, 0.52. As for RRIRNRPPRLPRPRPRPYVSPRP, the figure is -0.0285; as for RRIRPRPPRLPRPRPRPCLHPRP, -0.248; as for RRIRARPPRLPRPRPRPEEKPRP, 1.22. As for RRIRVRPPRLPRPRPRPTLEPRP, the figure is 0.413; as for RRIRARPPRLPRPRPRPWSDPRP, 0.15; as for RRIRERPPRLPRPRPRPICEPRP, 0.0105.

RRIRNRPPRLPRPRPRPAEDPRP: the “shrunken log2 fold change” value worked out at 0.0275.

In the case of RRIRVRPPRLPRPRPRPWRNPRP, the “shrunken log2 fold change” value was determined as 0.065. Turning to RRIRCRPPRLPRPRPRPWEAPRP, the “shrunken log2 fold change” value was 0.0139. Under RRIRQRPPRLPRPRPRPLVKPRP stands -0.166; under RRIRIRPPRLPRPRPRPCWLPRP, -0.196; under RRIRYRPPRLPRPRPRPRGRPRP, 0.142. Consider RRIRRRPPRLPRPRPRPEVGPRP, for which the “shrunken log2 fold change” value was 0.946. For RRIRARPPRLPRPRPRPNTRPRP, the “shrunken log2 fold change” value stood at 0.12. Under RRIRMRPPRLPRPRPRPQDIPRP stands -0.0524. Under RRIRVRPPRLPRPRPRPFNRPRP stands -0.0378; under RRIRYRPPRLPRPRPRPNKMPRP, -1.19; under RRIRTRPPRLPRPRPRPKGHPRP, 0.208. Under RRIRQRPPRLPRPRPRPRTNPRP stands 0.158; under RRIRPRPPRLPRPRPRPSWNPRP, -0.158. In the case of RRIRWRPPRLPRPRPRPEITPRP, the “shrunken log2 fold change” value was 0.437.

For RRIRRRPPRLPRPRPRPPNKPRP, the “shrunken log2 fold change” value was 0.333. Under RRIRYRPPRLPRPRPRPFMLPRP stands -1.19; under RRIRKRPPRLPRPRPRPGERPRP, -0.116; under RRIRSRPPRLPRPRPRPKGPPRP, -0.00375. With RRIRTRPPRLPRPRPRPDAAPRP, the “shrunken log2 fold change” value was found to be 0.424. As for RRIRNRPPRLPRPRPRPWCNPRP, the figure is -0.507. Under RRIRVRPPRLPRPRPRPIHNPRP stands -0.554; under RRIRARPPRLPRPRPRPSIRPRP, -0.0712. Under RRIRDRPPRLPRPRPRPCRRPRP stands -0.155. Regarding RRIRERPPRLPRPRPRPYFHPRP, the “shrunken log2 fold change” value was -0.996. Take RRIRWRPPRLPRPRPRPGMQPRP: the “shrunken log2 fold change” value was 0.775. Regarding RRIRVRPPRLPRPRPRPLCMPRP, the “shrunken log2 fold change” value is -0.123. Under RRIRIRPPRLPRPRPRPSMCPRP stands -1.33; under RRIRKRPPRLPRPRPRPHATPRP, 1.06. For RRIRHRPPRLPRPRPRPRSPPRP, the “shrunken log2 fold change” value is 0.243. Turning to RRIRARPPRLPRPRPRPEMWPRP, the “shrunken log2 fold change” value is 1.21. Under RRIRQRPPRLPRPRPRPHYAPRP stands -0.0213; under RRIRCRPPRLPRPRPRPGTGPRP, 0.119. As for RRIRPRPPRLPRPRPRPAMDPRP, the figure is 0.0161; as for RRIRYRPPRLPRPRPRPSHGPRP, -0.274; as for RRIRIRPPRLPRPRPRPRALPRP, 0.0988. Under RRIRMRPPRLPRPRPRPCCIPRP stands -0.351; under RRIRYRPPRLPRPRPRPENLPRP, 0.0949. For the sequence RRIRTRPPRLPRPRPRPTFVPRP, the “shrunken log2 fold change” value is -0.262. Under RRIRSRPPRLPRPRPRPRRHPRP stands 0.323. As for RRIRARPPRLPRPRPRPIGEPRP, the figure is -0.0613. For the sequence RRIRMRPPRLPRPRPRPHDNPRP, the “shrunken log2 fold change” value was 0.0232.

As for RRIRDRPPRLPRPRPRPIWQPRP, the “shrunken log2 fold change” value came to 0.211. Consider RRIRVRPPRLPRPRPRPLYYPRP, for which the “shrunken log2 fold change” value was -0.453. As for RRIRFRPPRLPRPRPRPFKNPRP, the figure is -0.46; as for RRIRIRPPRLPRPRPRPEDYPRP, -0.0393. Under RRIRWRPPRLPRPRPRPHFWPRP stands 0.27; under RRIRVRPPRLPRPRPRPVWQPRP, 0.148; under RRIRHRPPRLPRPRPRPSASPRP, -0.0379. Under RRIRERPPRLPRPRPRPIKSPRP stands -0.611.

As to RRIRHRPPRLPRPRPRPTSEPRP, the “shrunken log2 fold change” value came to 0.0261.

On to RRIRIRPPRLPRPRPRPIECPRP, for which the “shrunken log2 fold change” value is -0.314.

Regarding RRIRGRPPRLPRPRPRPKGAPRP, the “shrunken log2 fold change” value is 1.06. Under RRIRHRPPRLPRPRPRPAENPRP stands -0.0113. As for RRIRDRPPRLPRPRPRPEHPPRP, the figure is 0.054. On to RRIRHRPPRLPRPRPRPWDVPRP, for which the “shrunken log2 fold change” value was -0.0319. Consider RRIRIRPPRLPRPRPRPHTCPRP, for which the “shrunken log2 fold change” value is -0.0906. As for RRIRERPPRLPRPRPRPGTCPRP, the figure is 0.0777. Under RRIRNRPPRLPRPRPRPADAPRP stands 0.261; under RRIRLRPPRLPRPRPRPDMRPRP, -0.0825.

Turning to RRIRGRPPRLPRPRPRPVSFPRP, the “shrunken log2 fold change” value amounted to 0.392. Under RRIRRRPPRLPRPRPRPYPYPRP stands -0.0951; under RRIRTRPPRLPRPRPRPTEQPRP, 0.303. Under RRIRDRPPRLPRPRPRPLLMPRP stands 0.359; under RRIRLRPPRLPRPRPRPEMQPRP, 0.0197; under RRIRQRPPRLPRPRPRPQGIPRP, -0.602.

Regarding RRIRCRPPRLPRPRPRPNNGPRP, the “shrunken log2 fold change” value is -0.451.

Turning to RRIRNRPPRLPRPRPRPVWYPRP, the “shrunken log2 fold change” value is -0.326. As for RRIRARPPRLPRPRPRPDMAPRP, the figure is 0.265; as for RRIRCRPPRLPRPRPRPFRPPRP, -0.515. Under RRIRMRPPRLPRPRPRPHMQPRP stands -0.122; under RRIRARPPRLPRPRPRPPYMPRP, -0.467; under RRIRHRPPRLPRPRPRPRYYPRP, -0.332. Consider RRIRWRPPRLPRPRPRPDNTPRP, for which the “shrunken log2 fold change” value is -0.25. Under RRIRRRPPRLPRPRPRPCTKPRP stands -0.147; under RRIRRRPPRLPRPRPRPDHVPRP, 0.101. As for RRIRHRPPRLPRPRPRPCIKPRP, the figure is -0.721; as for RRIRVRPPRLPRPRPRPREHPRP, 0.322; as for RRIRFRPPRLPRPRPRPRVNPRP, -0.116. As for RRIRDRPPRLPRPRPRPDHPPRP, the figure is -0.76. As for RRIRARPPRLPRPRPRPSECPRP, the “shrunken log2 fold change” value was determined as 0.145.

For RRIRRRPPRLPRPRPRPGQVPRP, the “shrunken log2 fold change” value was determined as 0.239.

Consider RRIRYRPPRLPRPRPRPTQYPRP, for which the “shrunken log2 fold change” value is -0.531.

As for RRIRSRPPRLPRPRPRPARGPRP, the “shrunken log2 fold change” value stood at 0.574.

For the sequence RRIRHRPPRLPRPRPRPDGPPRP, the “shrunken log2 fold change” value is -0.0182.

As to RRIRGRPPRLPRPRPRPMRVPRP, the “shrunken log2 fold change” value worked out at 1.65. As for RRIRWRPPRLPRPRPRPPSTPRP, the figure is 0.402. As for RRIRTRPPRLPRPRPRPTKNPRP, the figure is -0.083; as for RRIRSRPPRLPRPRPRPMFYPRP, -0.544; as for RRIRIRPPRLPRPRPRPIKTPRP, -0.0553. As for RRIRRRPPRLPRPRPRPYCTPRP, the figure is -0.24; as for RRIRKRPPRLPRPRPRPEYKPRP, 0.0908; as for RRIRCRPPRLPRPRPRPGPRPRP, 0.713. Consider RRIRFRPPRLPRPRPRPAENPRP, for which the “shrunken log2 fold change” value is -0.134. As for RRIRNRPPRLPRPRPRPYSRPRP, the figure is -0.00947. On to RRIRFRPPRLPRPRPRPGSVPRP, for which the “shrunken log2 fold change” value was -0.147. As for RRIRWRPPRLPRPRPRPQDAPRP, the figure is -0.0395; as for RRIRWRPPRLPRPRPRPGGEPRP, 0.107. In the case of RRIRMRPPRLPRPRPRPRVDPRP, the “shrunken log2 fold change” value came out at 0.95.

On to RRIRYRPPRLPRPRPRPNGYPRP, for which the “shrunken log2 fold change” value amounted to 0.122. Under RRIRHRPPRLPRPRPRPGANPRP stands -0.0811; under RRIRHRPPRLPRPRPRPLLWPRP, 0.0832.

Consider RRIRIRPPRLPRPRPRPDGSPRP, for which the “shrunken log2 fold change” value is -0.189. Take RRIRGRPPRLPRPRPRPEIMPRP: the “shrunken log2 fold change” value came to 1.33. Under RRIRSRPPRLPRPRPRPDKAPRP stands -0.111. As for RRIRSRPPRLPRPRPRPRATPRP, the figure is 0.301.

Consider RRIRERPPRLPRPRPRPEYEPRP, for which the “shrunken log2 fold change” value turned out to be 0.0303. As for RRIRCRPPRLPRPRPRPYAYPRP, the figure is -0.208; as for RRIRLRPPRLPRPRPRPLWYPRP, -0.191; as for RRIRIRPPRLPRPRPRPWWAPRP, -0.255. RRIRCRPPRLPRPRPRPSIYPRP: the “shrunken log2 fold change” value was -0.713. As for RRIRPRPPRLPRPRPRPIAQPRP, the figure is 0.487. Under RRIRIRPPRLPRPRPRPYWKPRP stands -0.0289; under RRIRNRPPRLPRPRPRPDEYPRP, 0.00318.
